Source: US20240425556A1, “MYOPEPTIDES AND METHODS OF USE IN TREATING HEART FAILURE” (University of Cincinnati, priority 2021, published 2024)
Values belong to the molecule of their own block, whether it stands above or below them.

B1: recombinant C0-C2 protein (C0, C1 and C2 domains of cardiac myosin binding protein-C) with 6X his-tag (other)
chain: MPEPGKKPVSAFNKKPRSAEVTAGSAAVFEAETERSGVMVRWQRDGSDITANDKYGLAAEGKRHTLTVRDASPDDQGSYAVIAGSSKVKFDLKVTEPAPPEKAESEVAPGAPEEVPAPATELEESVSSPEGSVSVTQDGSAAEHQGAPDDPIGLFLMRPQDGEVTVGGSIVFSARVAGASLLKPPVVKWFKGKWVDLSSKVGQHLQLHDSYDRASKVYLFELHITDAQTTSAGGYRCEVSTKDKFDSCNFNLTVHEAIGSGDLDLRSAFRRTSLAGAGRRTSDSHEDAGTPDFSSLLKKRDSFRRDSKLEAPAEEDVWEILRQAPPSEYERIAFQHGVEACHRPLKRLKGMKQDEKKSTAFQKKLEPAYQVNKGHKIRLTVELADPDAEVKWLKNGQEIQMSGSKYIFESVGAKRTLTISQCSLADDAAYQCVVGGEKCSTELFVKEP
B2: recombinant S2^126 (proximal 126 amino acid sub-fragment 2 region of myosin) with 6X his-tag (other)
chain: PLLKSAETEKEMANMKEEFGRVKDALEKSEARRKELEEKMVSLLQEKNDLQLQVQAEQDNLNDAEERCDQLIKNKIQLEAKVKEMTERLEDEEEMNAELTAKKRKLEDECSELKKDIDDLELTLAK
notes: The position of the his-tag is unknown; also called mouse myosin S2; not shown: 6X his-tag

How the values were obtained:
S2^126-C0-C2 binding = molecular target: T1, S2^126-C0-C2 binding (Homo sapiens, UniProt Q14896); assay: Solid phase binding assay (SPBA), competition for S2^126-C0-C2 binding; settings: for ability to compete for S2^126-C0-C2 binding: SPBA, FIGS. 3A and 3B
T1 construct: 6X His; made in house; host or cells: E. coli BL21
T1 sequence (Q14896 1-451 limits assumed): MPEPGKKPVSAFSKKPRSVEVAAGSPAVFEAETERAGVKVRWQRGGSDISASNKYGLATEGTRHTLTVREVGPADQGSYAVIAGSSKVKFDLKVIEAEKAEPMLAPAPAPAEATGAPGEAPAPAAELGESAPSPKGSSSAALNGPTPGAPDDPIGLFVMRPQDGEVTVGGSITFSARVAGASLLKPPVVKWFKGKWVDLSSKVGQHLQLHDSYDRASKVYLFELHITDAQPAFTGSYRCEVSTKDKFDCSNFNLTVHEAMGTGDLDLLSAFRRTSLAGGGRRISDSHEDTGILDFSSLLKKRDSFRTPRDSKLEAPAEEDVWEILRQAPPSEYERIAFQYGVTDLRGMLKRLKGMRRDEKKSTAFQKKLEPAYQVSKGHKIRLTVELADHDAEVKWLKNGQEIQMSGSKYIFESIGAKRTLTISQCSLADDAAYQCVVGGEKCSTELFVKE
Description: Peptides of Table 1 were tested in vitro to determine whether they compete for binding in the interaction between S2^126 and the C0-C2 protein. In these experiments, recombinant S2^126 and C0-C2 protein with 6X his-tags were bacterially expressed in BL21 E. coli and then purified through Talon© metal affinity columns. A solid phase binding assay (SPBA) was then performed, whereby 20 μM of the C0-C2 protein was adsorbed onto wells of a 96-well microtiter plate. Then, 20 μM of S2^126, along with increasing concentrations of selected experimental peptides from Table 1, ranging from 0-20 μM, were added.
The following procedure identified the competitive nature of the tested experimental peptides from Table 1. […] The Alexa Fluor 568© secondary antibody (anti-rabbit) would then bind to the primary antibody to give a relative positive fluorescence of 1.0. Conversely, if the experimental peptide successfully competed with the S2^126-C0-C2 binding. then the S2^126 site would not be available for binding by the primary antibody. Therefore, the secondary antibody would also fail to bind, leading to a decrease in the relative fluorescence below 1.0. As a result, for a non-competing peptide, the relative fluorescence approaches 1.0, as observed by S2^126-C0-C2 binding. For a competing peptide, a decay in the relative fluorescence is observed. This SPBA assay was used to screen peptides for efficacy in disrupting the interaction between S2^126-C0-C2.

[1] = test system: skinned papillary fibers from mouse hearts; assay: Maximal force (Fmax) of skinned papillary muscle fibers versus calcium concentration; settings: for effect on muscle / contractile function: summary statement
Description: The ability of the experimental peptides to increase or otherwise affect contractility in the heart muscle system was tested using skinned papillary fibers from mouse hearts. In this ex vivo experiment, cardiac papillary fibers from mouse hearts were isolated and skinned overnight in 1% Triton X-100 low calcium buffer supplemented with ATP, creatine phosphate, and magnesium chloride. Because skinned muscle fibers are devoid of sarcolemma, nuclei, and sarcoplasmic reticulum, the fibers can only contract if supplemented with calcium, magnesium chloride, ATP, and creatine phosphate. This assay allows for the opportunity to screen for compounds or molecules that affect the contractility of the muscle.
Skinned papillary muscle fibers were cycled through buffers containing a constant concentration magnesium chloride, ATP, creatine phosphate, but increasing concentrations of calcium. As the muscle fiber goes from buffers containing low concentrations of calcium to buffers containing high concentrations of calcium, the force developed increases with increasing concentration. Thus, plotting the force produced versus calcium concentration provides a sigmoidal curve, yielding the maximal force produced (Fmax) and the midpoint calcium concentration where the force produced is exactly half of the force produced at high calcium concentration. This is useful for measuring the calcium sensitivity (pCa50) of the muscle fibers.
The experiment and measurement of Fmax, pCa50, and ktr was performed for a muscle in the absence of the experimental peptide and then in the presence of 10 μM and 20 μM of the experimental peptide.

[2] = molecular target: B2; assay: ITC; 300 µM S2^126 titrated into 20 µM C0-C2
[3] = molecular target: B1; assay: solid phase binding assay; peptide 0-20 µM against 20 µM S2^126 on adsorbed C0-C2
[4] = molecular target: cardiac myosin binding protein-C (cMyBP-C) in skinned papillary muscle fibers from mouse hearts (mouse, UniProt O70468 1-1270); assay: cell-based or functional assay
[5] = molecular target: B1; assay: solid phase binding assay, competition: C0-C2 adsorbed on the plate, 20 µM S2^126 as competitor plus rising peptide; bound S2^126 detected with rabbit anti-S2^126 and Alexa Fluor 568 secondary antibody (Fluorescence Endpoint λ603, relative)
[6] = molecular target: B1; assay: solid phase binding assay; competition with S2^126 on adsorbed C0-C2
[7] = molecular target: B1; assay: ITC; 300 µM S2^126 titrated into 20 µM C0-C2
C0-C2 protein = molecular target: T2, C0-C2 protein (Homo sapiens, UniProt Q14896); assay: Isothermal titrating calorimetry (ITC); format: binding; settings: 300 μM S2^126 titrated to 20 μM C0-C2 protein; read-out: dissociation constant (kd)
T2 construct: 6X His; made in house; host or cells: E. coli BL21
T2 sequence (Q14896 1-451 limits assumed): as above
Description: Isothermal titrating calorimetry (ITC) was used to validate and verify the results from the SPBA assays of Example 2. In ITC experiments, the heat of binding between two proteins is measured by titrating one protein with the other protein and then measuring the heat released or absorbed through a reference fluid with a constant temperature. By titrating 300 μM of S2^126 to 20 μM of C0-C2 protein, the stoichiometry (η) of 0.98 and dissociation constant (kd) of 4.7 μM for S2^126-C0-C2 binding were determined.
Using the above stoichiometry and dissociation constant values as controls, all of the experimental peptides were titrated at 300 μM with 20 μM of C0-C2 protein and compared with the above S2^126 control.

[8] = at 20 μM peptide, 20 μM S2^126, 20 μM C0-C2 adsorbed

Molecule: CDQLIKNKIQLEAKVKEMTERLEDEEEMNAELTAKK (listed as Mus musculus) [Amg 23005]
ability to compete for S2^126-C0-C2 binding (S2^126-C0-C2 binding): effectively compete | relative fluorescence (S2^126-C0-C2 binding; [8]): 0 | effect on muscle / contractile function [1]: successfully improved muscle function

Molecule: ETEKEMAMVSLLQAEERCDQDIDDLELTLAK [Amg 23050, scramble control peptide, reference compound]
ability to compete for S2^126-C0-C2 binding (S2^126-C0-C2 binding): unable to compete

Molecule: PLLKSAETEKEMANMKEEFGRVKDALEKSEARRKELEEKM (listed as Mus musculus) [Amg 23003]
ability to compete for S2^126-C0-C2 binding (S2^126-C0-C2 binding): unable to compete

Molecule: RKELEEKMVSLLQEKNDLQLQVQAEQDNLNDAEERCDQLIKNK (listed as Mus musculus) [Amg 23004]
ability to compete for S2^126-C0-C2 binding (S2^126-C0-C2 binding): unable to compete

Molecule: VKEMTERLEDEEEMNAELTAKKRKLEDECSELKKDIDDLELTLAK (listed as Mus musculus) [Amg 23006]
ability to compete for S2^126-C0-C2 binding (S2^126-C0-C2 binding): effectively compete | relative fluorescence (S2^126-C0-C2 binding; [8]): 0 | effect on muscle / contractile function [1]: successfully improved muscle function

Molecule: B1
Kd [2]: 4.7 µM

Molecule: DEEEMNAELTAKKR [Amg 27117]
relative fluorescence [3]: ~1 relative fluorescence

Molecule: VKEMTERLEDEEEMNAELTAKKRKLEDECSELKKDIDDLELTLAK [Amg 23006]
maximal force produced by skinned papillary muscle fibers (Fmax) [4]: 13% | rate of force redevelopment (ktr) at pCa 5.7 [4]: 1.5 fold | stoichiometry [6]: 1

Molecule: B2
stoichiometry (η) [7]: 0.98

Molecule: RKELEEKMVSLLQEKNDLQLQVQAEQDNLNDAEERCDQLIKNK [Amg 23004]
relative fluorescence [3]: ~1 relative fluorescence

Molecule: PLLKSAETEKEMANMKEEFGRVKDALEKSEARRKELEEKM [Amg 23003]
relative fluorescence [3]: ~1 relative fluorescence

Molecule: CDQLIKNKIQLEAKVKEMTERLEDEEEMNAELTAKK [Amg 23005]
maximal force produced by skinned papillary muscle fibers (Fmax) [4]: 13% | rate of force redevelopment (ktr) at pCa 5.7 [4]: 1.5 fold | stoichiometry [6]: 1

More lines, main results first:

ability to compete for S2^126-C0-C2 binding (S2^126-C0-C2 binding): effectively compete | relative fluorescence (S2^126-C0-C2 binding; at peptide concentrations above 15 μM): 0
Molecule: VKEMTERLEDEEEMNAELTAKK (listed as Mus musculus) [Amg 27119]
increase of maximal force produced by the fibers ([1]; peptide 10 μM and 20 μM versus control, particularly at higher calcium concentrations): about 30% | effect on muscle / contractile function [1]: highly effective in improving contractile function

relative fluorescence [3]: ~1 relative fluorescence
Molecule: KLEDECSELKKDIDDLELTLAK [Amg 27118]

maximal force produced by skinned papillary muscle fibers (Fmax) [4]: ~30% | rate of force redevelopment (ktr) at pCa 5.7 [4]: 2.5 fold | IC50 (read off the curve) [5]: ~6 µM
Molecule: VKEMTERLEDEEEMNAELTAKK (also called myopeptide) [Amg 27119 (mouse myosin S2 subset)]

relative fluorescence [3]: ~1 relative fluorescence
Molecule: ETEKEMAMVSLLQAE [Amg 27120]

relative fluorescence [3]: ~1 relative fluorescence
Molecule: ETEKEMAMVSLLQAEERCDQDIDDLELTLAK [Scramble control Amg 25030]

Kd (C0-C2 protein): 4.7 µM
B3: PLLKSAETEKEMANMKEEFGRVKDALEKSEARRKELEEKMVSLLQEKNDLQLQVQAEQDNLNDAEERCDQLIKNKIQLEAKVKEMTERLEDEEEMNAELTAKKRKLEDECSELKKDIDDLELTLAK (protein, listed as Mus musculus)
chain: PLLKSAETEKEMANMKEEFGRVKDALEKSEARRKELEEKMVSLLQEKNDLQLQVQAEQDNLNDAEERCDQLIKNKIQLEAKVKEMTERLEDEEEMNAELTAKKRKLEDECSELKKDIDDLELTLAK
modifications: 6X His tag
notes: recombinant proximal 126 amino acid fragment of myosin S2 with 6X his-tag, expressed in E. coli
